According to patent US5910570A, “Cloned DNA encoding a UDP-GalNAc: polypeptide N-acetylgalactosaminy-ltransferase” (Pharmacia & Upjohn Company, priority 1997, dated 1999):
“And” between values parts separate entries of the source, which are not always exact repeats. Identical values can stand only once.

B1: bovine colostrum GalNAc-transferase (Bos taurus) (protein)
chain: GLPAGDVLEPVQKPHEGPGEMGKPVVIPKEDQEKMKEMFKINQFNLMASEMIALNRSLPDVRLEGCKTKVYPDNLPTTSVVIVFHNEAWSTLLRTVHSVINRSPRHMLEEIVLVDDASERDFLKRPLESYVKKLKVPVHVIRMEQRSGLIRARLKGAAVSKGQVITFLDAHCECTVGWLEPLLARIKHDRKTVVCPIIDVISDDTFEYMAGSDMTYGGFNWKLNFRWYPVPQREMDRRKGDRTLPVRTPTMAGGLFSIDRDYFQEIGTYDAGMDIWGGENLEISFRIWQCGGTLEIVTCSHVGHVFRKATPYTFPGGTGQIINKNNRRLAEVWMDEFKNFFYIISPGVTKVDYGDISSRLGLRHKLQCRPFSWYLENIYPDSQIPRHYFSLGEIRNVETNQCLDNMARKENEKVGIFNCHGMGGNQVFSYTANKEIRTDDLCLDVSKLNGPVTMLKCHHLKGNQLWEYDPVKLTLQHVNSNQCLDKATDEDSQVPSIRDCSGSRSQQWLLRNVTLPEIF
notes: from tissue; host or cells: bovine colostrum
B2: cloned soluble GalNAc-transferase (GalNAcTs) (Bos taurus) (protein)
chain: LEPVQKPHEGPGEMGKPVVIPKEDQEKMKEMFKINQFNLMASEMIALNRSLPDVRLEGCKTKVYPDNLPTTSVVIVFHNEAWSTLLRTVHSVINRSPRHMLEEIVLVDDASERDFLKRPLESYVKKLKVPVHVIRMEQRSGLIRARLKGAAVSKGQVITFLDAHCECTVGWLEPLLARIKHDRKTVVCPIIDVISDDTFEYMAGSDMTYGGFNWKLNFRWYPVPQREMDRRKGDRTLPVRTPTMAGGLFSIDRDYFQEIGTYDAGMDIWGGENLEISFRIWQCGGTLEIVTCSHVGHVFRKATPYTFPGGTGQIINKNNRRLAEVWMDEFKNFFYIISPGVTKVDYGDISSRLGLRHKLQCRPFSWYLENIYPDSQIPRHYFSLGEIRNVETNQCLDNMARKENEKVGIFNCHGMGGNQVFSYTANKEIRTDDLCLDVSKLNGPVTMLKCHHLKGNQLWEYDPVKLTLQHVNSNQCLDKATDEDSQVPSIRDCSGSRSQQWLLRNVTLPEIF
notes: The plasmid pAC373-GalNAcT (Homa et al., 1993) which contains the full length GalNAc-transferase gene; honeybee melittin signal peptide (21 aa) (N, cleaved yes); made in house; host or cells: Sf9 cells / baculovirus, purified from serum-free culture medium on apomucin-Sepharose

How the values were obtained:
Assay type in all cases: biochemical, bovine
[1] = substrate: C[C@@H](O)[C@H](NC(=O)[C@@H](N)CCCNC(=N)N)C(=O)N1CCC[C@H]1C(=O)N1CCC[C@H]1C(=O)N1CCC[C@H]1C(=O)O; experiment: Determination of kinetic parameters for acceptor peptides (Dowex-2 assay); conditions: other: acceptor peptide; 150 μM UDP-GalNAc, 20 minutes; means ± S.E. (n = 3); pH 7.2
Method: (§1) The transfer of N-acetylgalactosamine to peptide acceptors is assayed by two different assays. The concentration of UDP-GalNAc is saturating in all assays; a Km of 8 μM is reported for bovine colostrum GalNAc-transferase (Elhammer and Kornfeld, 1986). For the determination of kinetic parameters the reaction mixture contains 50 mM Imidazole, pH 7.2, 10 mM MnCl2, 0.5% Triton X-100, 150 μM UDP-GalNAc, approximately 120,000 cpm of UDP-[1-^3 H]-GalNAc, varying concentrations of acceptor (see individual experiments) and approximately 5 mU of enzyme in a final volume of 40 μl; standard incubation time is 20 minutes. The reaction is terminated by placing the samples in a boiling water bath for 1.5 minutes. The reaction product (glycosylated peptide) is separated from unreacted UDP-GalNAc by chromatography on Dowex-2 columns (0.5 ml bed volume) equilibrated in water; the run-through fraction (2.5 ml) containing the glycosylated peptide is collected, supplemented with scintillation fluid and counted for radioactivity. For the determination of the low levels of transfer to serine, the assay conditions are as follows: 50 mM Imidazole, pH 7.2, 10 mM MnCl2, 0.5% Triton X-100, 150 μM UDP-GalNAc, approximately 260,000 cpm UDP-[^3 H]-GalNAc and 3.2 mM acceptor peptide (the concentration of RSPPP is 3.7 mM). The assays are incubated for 20 minutes ([…]) [SEQ ID NO:14] or 8 hours ([…] [SEQ ID NO:15], PPAdSSdSAPG and RSPPP [SEQ ID NO:13]). Following incubation, the enzyme is inactivated by placing the samples on a boiling water bath for 1.5 minutes. The samples are then allowed to cool and the reaction products are separated from unreacted UDP-GalNAc and free GalNAc by chromatography on a Biogel P-2 column (1×50 cm) equilibrated in 7% isopropanol; thirty 1.3 ml fractions are collected.
(§2) Assays were carried out as described in Materials and Methods.
(§3) Assay time was 20 minutes.
(§4) The values are given as means ± S.E. (n = 3)

[2] = substrate: C[C@H](NC(=O)[C@@H]1CCCN1C(=O)[C@@H]1CCCN1)C(=O)N[C@@H](CO)C(=O)N[C@@H](CO)C(=O)N[C@@H](CO)C(=O)N[C@@H](C)C(=O)N1CCC[C@H]1C(=O)NCC(=O)O; experiment: as above; conditions: other: calculated assuming that S0 << Km; pH 7.2
Method: as §1, §2, §3, §4

[3] = substrate: C[C@H](NC(=O)[C@@H]1CCCN1C(=O)[C@@H]1CCCN1)C(=O)N[C@@H](CO)C(=O)N[C@H](C(=O)N[C@@H](CO)C(=O)N[C@@H](C)C(=O)N1CCC[C@H]1C(=O)NCC(=O)O)[C@@H](C)O; experiment: as above; conditions: other: acceptor peptide; 150 μM UDP-GalNAc, 20 minutes; means ± S.E. (n = 3); pH 7.2
Method: as §1, §2, §3, §4

[4] = substrate: C[C@H](NC(=O)[C@@H]1CCCN1C(=O)[C@@H]1CCCN1)C(=O)N[C@H](CO)C(=O)N[C@H](C(=O)N[C@H](CO)C(=O)N[C@@H](C)C(=O)N1CCC[C@H]1C(=O)NCC(=O)O)[C@@H](C)O; experiment: as above; conditions: other: calculated assuming that S0 << Km; pH 7.2
Method: as §1, §2, §3, §4

[5] = substrate: N=C(N)NCCC[C@H](N)C(=O)N[C@@H](CO)C(=O)N1CCC[C@H]1C(=O)N1CCC[C@H]1C(=O)N1CCC[C@H]1C(=O)O; experiment: as above; conditions: other: calculated assuming that S0 << Km; pH 7.2
Method: as §1, §2, §3, §4

[6] = substrate: CC(C)C[C@H](NC(=O)[C@@H]1CCCN1C(=O)[C@H](C)NC(=O)[C@H](C)NC(=O)[C@H](CO)NC(=O)[C@H](C)NC(=O)[C@H](C)NC(=O)[C@H](CC(=O)O)NC(=O)[C@@H]1CCCN1C(=O)[C@@H]1CCCN1)C(=O)N[C@@H](CCCNC(=N)N)C(=O)O; experiment: Kinetic parameters with the cloned soluble GalNAc-transferase (Bond Elut assay); conditions: other: GalNAcTs; double reciprocal plots
[7] = substrate: C[C@H](NC(=O)[C@@H]1CCCN1C(=O)[C@@H]1CCCN1)C(=O)N[C@@H](CO)C(=O)N[C@H](C(=O)N[C@@H](CO)C(=O)N[C@@H](C)C(=O)N1CCC[C@H]1C(=O)NCC(=O)O)[C@@H](C)O; experiment: as above; conditions: other: GalNAcTs; double reciprocal plots

Row | Protein | Km [1] | kcat [1] | kcat/Km [1] | kcat/Km [2] | Km [3] | kcat [3] | kcat/Km [3] | kcat/Km [4] | kcat/Km [5] | Km [6] | Km [7]
1 | B1 | 3.3 mM | 0.604 ± 0.083 s⁻¹ | 183 M⁻¹ s⁻¹ | 8.5 M⁻¹ s⁻¹ | 6 mM | 1.81 ± 0.357 s⁻¹ | 301 M⁻¹ s⁻¹ | 1.2 M⁻¹ s⁻¹ | 0.4 M⁻¹ s⁻¹ | – | –
2 | B2 | – | – | – | – | – | – | – | – | – | 3.6 mM and 3.5 mM | 6.5 mM
